Publication PMC10676424, “VirB, a transcriptional activator of virulence in Shigella flexneri, uses CTP as a cofactor” (Communications Biology, 2023)
Changes are numbered by the printed parent chain. Names and notes keep the numbering of the source.

B1: VirB(C5S, Q15C, A297C) (natural protein)
chain: MVDLSNDLLSIKEGCKKEFTLHSGNKVSFIKAKIPHKRIQDLTFVNQKTNVRDQESLTEESLADIIKTIKLQQFFPVIGREIDGRIEILDGTRRRASAIYAGADLEVLYSKEYISTLDARKLANDIQTAKEHSIRELGIGLNFLKVSGMSYKDIAKKENLSRAKVTRAFQAASVPQEIISLFPIASELNFNDYKILFNYYKGLEKANESLSSTLPILKEEIKDLDTNLPPDIYKKEILNIIKKSKNRKQNPSLKVDSLFISKDKRTYIKRKENKTNRTLIFTLSKINKTVQREIDECIRDIISRHLSSS
notes: not shown: GFP, N-terminal, cleaved
B2: VirB(C5S, I30C) (natural protein)
chain: B1 chain with C15Q, I30C, C297A
notes: also called engineered C5S, I30C; not shown: GFP, N-terminal, cleaved
B3: VirB (natural protein)
chain: B1 chain with S5C, C15Q, C297A
notes: as for B1

How the values were obtained:
Sfl VirB = target: T1, Sfl VirB (Shigella flexneri, UniProt P0A247); assay: isothermal titration calorimetry; assay type: binding
T1 construct: full length, N-terminal GFP tag removed with HRV-3C protease, made in E. coli BL21-Gold (DE3), dimer; gene on invasion plasmid pINV
T1 sequence (P0A247 whole entry): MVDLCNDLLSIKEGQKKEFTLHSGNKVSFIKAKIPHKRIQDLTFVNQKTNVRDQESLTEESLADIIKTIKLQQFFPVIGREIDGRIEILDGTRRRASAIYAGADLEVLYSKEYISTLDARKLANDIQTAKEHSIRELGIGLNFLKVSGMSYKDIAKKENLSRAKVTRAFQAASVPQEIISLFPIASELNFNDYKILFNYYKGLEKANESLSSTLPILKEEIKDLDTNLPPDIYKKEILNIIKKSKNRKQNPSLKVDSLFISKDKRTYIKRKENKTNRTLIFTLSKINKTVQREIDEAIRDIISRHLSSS

[1] = target: the molecule itself; assay: cross-linking; plasmid entrapment assay: 2 uM VirB, 250 uM CTP, 50 nM plasmid DNA, 1 mM BMOE, room temperature; low stringency buffer (150 mM NaCl, 50 mM Tris-HCl pH 7.5, 5 mM MgCl2) or high stringency buffer (25 mM HEPES/NaOH pH 7.5, 500 mM NaCl, 5 mM MgCl2, 1 mM DTT, 10 uM BSA, 0.01% Tween 20); SDS-PAGE and agarose gel
[2] = target: the molecule itself; assay: cross-linking; site-specific cysteine cross-linking with 1 mM BMOE; 10 uM protein, with or without 1 mM CTP and 1 uM 40-bp DNA; 150 mM NaCl (also 500/1000 mM), 50 mM Tris-HCl pH 7.5, 5 mM MgCl2; room temperature (25 °C); SDS-PAGE, Coomassie, band quantification

| Molecule | binding result [2] | also measured |
| --- | --- | --- |
| Nc1ccn([C@@H]2O[C@H](COP(=O)(O)OP(=O)(O)OP(=O)(O)O)[C@@H](O)[C@H]2O)c(=O)n1 [CTP] |  | Kd (Sfl VirB): ~1000 nM |
| B1 |  | stoichiometry N [1]: 2 |
| B2 | binds |  |
| B3 | binds |  |
